Experimental data as given in patent US20050124794A1, “Cell surface tropomyosin as a target of angiogenesis inhibition” (priority 2002, published 2005).
Blank lines part the entries; values can stand above or below the molecule they belong to.

How the values were obtained:
chicken gizzard Tpm [1] = biological target: T1, chicken gizzard Tpm (Gallus gallus, UniProt P19352); test: Binding to immobilized Tpm in a 96 well plate (biotin-HKa competition or direct binding)
T1 construct: purchased Sigma; host or cells: chicken gizzard (tissue-derived, as the name says)
T1 sequence (P19352 1-284 isoform P19352-2): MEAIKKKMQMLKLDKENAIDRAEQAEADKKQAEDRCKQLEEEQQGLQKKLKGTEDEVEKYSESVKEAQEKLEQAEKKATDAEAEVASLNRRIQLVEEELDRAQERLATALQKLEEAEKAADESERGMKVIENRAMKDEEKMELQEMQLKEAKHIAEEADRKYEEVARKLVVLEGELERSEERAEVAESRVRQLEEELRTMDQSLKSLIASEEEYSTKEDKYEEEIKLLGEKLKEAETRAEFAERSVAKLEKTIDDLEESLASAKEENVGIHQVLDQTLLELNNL
T1 sequence (P04268 1-284 isoform P04268-2 F73S/I172L/T199L/N203E/L204A partner): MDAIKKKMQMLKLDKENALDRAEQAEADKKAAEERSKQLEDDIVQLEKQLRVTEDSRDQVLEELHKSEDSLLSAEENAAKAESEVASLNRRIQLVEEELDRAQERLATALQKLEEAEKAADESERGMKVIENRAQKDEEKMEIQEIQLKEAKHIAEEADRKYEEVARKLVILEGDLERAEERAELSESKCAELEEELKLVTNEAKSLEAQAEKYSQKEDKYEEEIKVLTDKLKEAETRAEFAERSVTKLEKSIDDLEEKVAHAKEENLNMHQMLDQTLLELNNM
Experimental: Plates are coated at room temperature with chicken gizzard Tpm (Sigma) in Tris buffer-saline (TBS) (200 ng/well). After incubation for 2 hours, wells are washed with TBS, then 1% BSA/TBS/Tween-20 is added to each well and incubate at 37° C. for two hours. HKa (Enzyme Laboratories) that had been previously biotinylated with EZ-Link (Pierce) according to the manufacturers instructions, is added to the plate at a concentration of 10 nM together with ZnCl2 (10 μM) and the appropriate concentration of the protein, domain or peptide competitor. The plates are incubated at room temperature and then washed with TBS/Tween-20. Avidin-HRP is added, incubated for 20 minutes at room temperature, washed with TBS/Tween-20 and the chromogenic substrate is added. The reaction is stopped with sulfuric acid and the plate read at 490 nm.
The IC50 for the displacement of biotinylated-HKa for the peptides shown in Table 5 was determined as follows: 10 nM biotin-HKa is added to a 96 well plate previously coated with 200 ng of chicken gizzard Tpm in the presence of 10 μM ZnCl2. Increasing amounts of the peptides are added to the wells. The remaining biotin-HKa bound to Tpm was detected using avidin-HRP and a chromogenic substrate. A Kd was determined by non-linear regression analysis of the empirical data. The effect on the Matrigel Plug assay was determined as follows: Matrigel (0.5 mL) containing 400 ng/ml of bFGF, 50 μg/ml heparin with or without the peptide (300 μM) or saline buffer are injected in the flanks of a mouse. After five days, the plugs are removed and the plugs scanned.
The N-terminus of the pentapeptide HHPHG has been derivatized (capped) in an attempt to increase the pentapeptides' affinity to Tpm by increasing productive molecular contacts (or interactions). […] The IC50 for the displacement of biotinylated-HKa for the capped peptides shown in the table was determined as follows: 10 nM biotin-HKa was added to a 96 well plate previously coated with 200 ng of chicken gizzard Tpm in the presence of 10 μM ZnCl2. Increasing amounts of the peptides were added to the wells. The remaining biotin-HKa bound to Tpm was detected using avidin-HRP and a chromogenic substrate. A Kd was determined by non-linear regression analysis of the empirical data

HUVEC = test: EC proliferation assay (growth factor-induced); assay type: cell-based, human; conditions: bFGF 10 ng/ml; 20 nM HKa, 60 nM HKa domain 5
Experimental: EC proliferation assays. The effect of HKa on ECs in the absence or presence of mAb TM-311 was initially assessed using a proliferation assay, as described in Zhang et al., supra. Relative numbers of cells remaining in each well of a 96 well microplate after incubation for 48 hours in the absence or presence of HKa were determined using the Aqueous® cell proliferation assay (Promega, Madison, Wis.). Results are presented as the percent inhibition of bFGF-induced EC proliferation, which essentially reflects the extent of HKa-induced EC apoptosis. Though bFGF was used as the EC mitogen in most studies of the studies described herein, identical results were obtained using VEGF.

chicken gizzard Tpm [2] = biological target: T1, chicken gizzard Tpm; test: Binding of HKa to purified Tpm immobilized in 96 well microplates; conditions: for inhibition of binding of HKa to purified immobilized Tpm (in words): 20 nM biotin-HKa, 10 μM Zn2+
Experimental: To measure the binding of HKa to purified Tpm, 96 well microplates were coated with 20 μg/ml of chicken gizzard Tpm (Sigma), or bovine serum albumin (BSA), as a control. Wells were then blocked by incubation with phosphate buffered saline containing 5% nonfat milk, and incubated with increasing concentrations of HKa (0.01-20 nM) for 2 hours. Specifically-bound HKa was quantitated as described for cell binding assays (van Iwaarden et al., supra, and by assessing the ability of a 100-fold molar excess of unlabeled HKa to compete with biotin-HKa for binding.
In selected experiments, the ability of mAb TM-311 and recombinant HKa D5 to inhibit the binding of biotin-HKa to Tpm was assessed. These studies allowed determination of the Kd for binding of HKa D5 to Tpm using the equation: Kd (D5)=IC50/(1+[HKa]/Kd (HKa)) where IC50 is the concentration of HKa D5 that inhibited HKa binding by 50%, and Kd(HKa) is the Kd for binding of HKa to Tpm.

hTm3 = hTm3 (Homo sapiens, UniProt P09493); conditions: SPR, MacDonald et al. 2001; read-out: Kd of binding to immobilized hTm3; cited from earlier work
Sequence of hTm3 (P09493 1-284 isoform P09493-3): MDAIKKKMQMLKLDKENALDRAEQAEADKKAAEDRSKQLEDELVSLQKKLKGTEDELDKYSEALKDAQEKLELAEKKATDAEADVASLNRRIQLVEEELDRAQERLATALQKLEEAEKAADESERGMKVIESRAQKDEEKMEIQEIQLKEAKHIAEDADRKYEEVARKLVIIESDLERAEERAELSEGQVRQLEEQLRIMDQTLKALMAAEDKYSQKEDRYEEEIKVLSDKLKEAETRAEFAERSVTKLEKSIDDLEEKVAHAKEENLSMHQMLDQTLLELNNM

[3] = competition with 10 nM biotin-HKa
[4] = plate coated with 200 ng chicken gizzard Tpm, 10 μM ZnCl2

affinity for immobilized Tpm relative to endostatin (fold higher) (chicken gizzard Tpm [1]; [3]): approximately 1,000 fold | Kd (chicken gizzard Tpm [1]; [4]): ~2 nM
B1: H/P domain: Histidine-Proline rich domain of HPRG, responsible for anti-angiogenic activity (protein)
chain: SVNIIHRPPPHGHHPHGPPPHGHHPHGPPPHGHPPHGPPPRHPPHGPPPHGHPPHGPPPHGHPPHGPPPHGHPPHGPPPHGHPPHGHGFHDHGPCDPPSHK

binding to immobilized Tpm / displacement of biotin-HKa (in words) (chicken gizzard Tpm [1]; 10 nM biotin-HKa, 200 ng chicken gizzard Tpm, 10 μM ZnCl2): binds | Kd (chicken gizzard Tpm [1]; [4]): ~2 nM
B2: rabbit HPRG: rabbit Histidine-Proline-Rich Glycoprotein, SEQ ID NO:22 (protein)
chain: LTPTDCKTTKPLAEKALDLINKWRRDGYLFQLLRVADAHLDGAESATVYYLVLDVKETDCSVLSRKHWEDCDPDLTKRPSLDVIGQCKVIATRYSDEYQTLRLNDFNCTTSSVSSALANTKDSPVLFDFIEDTEPFRKSADKALEVYKSESEAYASFRVDRVERVTRVKGGERTNYYVDFSVRNCSRSHFHRHPAFGFCRADLSFDVEASNLENPEDVIISCEVFNFEEHGNISGFRPHLGKTPLGTDGSRDHHHPHKPHKFGCPPPQEGEDFSEGPPLQGGTPPLSPPFRPRCRHRPFGTNETHRFPHHRISVNIIHRPPPHGHHPHGPPPHGHHPHGPPPHGHPPHGPPPRHPPHGPPPHGHPPHGPPPHGHPPHGPPPHGHPPHGPPPHGHPPHGHGFHDHGPCDPPSHKEGPQDLHQHAMGPPPKHPGKRGPGKGHFPFHWRRIGSVYQLPPLQKGEVLPLPEANFPQLLLRNHTHPLKPEIQPFPQVASERCPEEFNGEFAQLSKFFPSTFPK

affinity for immobilized Tpm relative to endostatin (fold higher) (chicken gizzard Tpm [1]; [3]): approximately 1,000 fold | Kd (chicken gizzard Tpm [1]; [4]): ~1 nM | inhibition of binding of HKa to purified immobilized Tpm (in words) (chicken gizzard Tpm [2]): blocked binding | inhibition of binding of HKa to purified immobilized Tpm (in words) (chicken gizzard Tpm [2]; listed as HKa domain 5): inhibits binding | Kd (chicken gizzard Tpm [2]; from IC50 of competition with biotin-HKa (equation of b366), read-out: estimated Kd of binding to Tpm): ~2.1 nM
B3: HKa D5: Recombinant HKa domain 5, 125 residue D5 domain, SEQ ID NO:26 (protein, listed as Homo sapiens)
chain: VSPPHTSMAPAQDEERDSGKEQGHTRRHDWGHEKQRKHNLGHGHKHERDQGHGHQRGHGLGHGHEQQHGLGHGHKFKLDDDLEHQGGHVLDHGHKHKHGHGHGKHKNKGKKNGKHNGWKTEHLAS
inhibition of bFGF-induced EC proliferation (in words) (HUVEC): inhibition

Kd relative to that reported previously by SPR (fold better) (chicken gizzard Tpm [1]): 50 fold | affinity relative to HKa or HKa-D5 binding (fold lower) (chicken gizzard Tpm [1]): approximately 1,000 fold | Kd (chicken gizzard Tpm [1]; competition with 10 nM biotin-HKa, 10 μM ZnCl2): ~2000 nM
B4: endostatin: Zn2+-binding, antiangiogenic polypeptide comprised of the NC domain of collagen XVIII (protein, UniProt P39060 1572-1754, looked up)
Endostatin: HSHRDFQPVLHLVALNSPLSGGMRGIRGADFQCFQQARAVGLAGTFRAFLSSRLQDLYSIVRRADRAAVPIVNLKDELLFPSWEALFSGSEGPLKPGARIFSFDGKDVLRHPTWPQKSVWHGSDPNGRRLTESYCETWRTEAPSATGQASSLLGGRLLGQSAASCHHAYIVLCIENSFMTASK
modifications: Endostatin
Kd (hTm3): ~100000 nM
